Binding result and OD data for 11 molecules are collected here from patent US20130164309A1 (RESEARCH FOUNDATION OF STATE UNIVERSITY OF NEW YORK, published 2013).

B1: TCblR 32-52, 64-233-mycHis (receptor, not shown: small tags and cut ends)
chain: EAAASPLSTPTSAQAAGPSSGSGLCVPLTWRCDRDLDCSDGSDEEECRIEPCTQKGQCPPPPGLPCPCTGVSDCSGGTDKKLRNCSRLACLAGELRCTLSDDCIPLTWRCDGHPDCPDSSDELGCGTNEILPEGDATTMGPPVTLESVTSLRNATTMGPPVTLESVPSVGNATSSSAGDQSGSPTAYGVIA
notes: Secreted, expressed in HEK293 cells, used as culture medium; also called p53-63del; N-terminal 11 residues (aa 53-63) of the first LDLR-A domain deleted
B2: recombinant extracellular domain of human TCblR (aa 32-233), untagged secreted form (receptor)
chain: EAAASPLSTPTSAQAAGPSSGSCPPTKFQCRTSGLCVPLTWRCDRDLDCSDGSDEEECRIEPCTQKGQCPPPPGLPCPCTGVSDCSGGTDKKLRNCSRLACLAGELRCTLSDDCIPLTWRCDGHPDCPDSSDELGCGTNEILPEGDATTMGPPVTLESVTSLRNATTMGPPVTLESVPSVGNATSSSAGDQSGSPTAYGVIA
notes: Expressed in HEK 293 cells and secreted into the culture medium; also called TCblR ECD; extracellular TCblR
B3: extracellular TCblR mycHis mutant pDE163, 164>LL (receptor, not shown: small tags and cut ends)
chain: B2 chain with D132L, E133L
notes: Made on the extracellular TCblR cDNA in pcDNA3.1 (-) mycHisA, expressed in HEK293 cells; also called D163L, E164L
B4: extracellular TCblR mycHis mutant pDE85, 86>LL (receptor, not shown: small tags and cut ends)
chain: B2 chain with D54L, E55L
notes: Made on the extracellular TCblR cDNA in pcDNA3.1 (-) mycHisA, expressed in HEK293 cells; also called D85L, E86L
B5: truncated TCblR 32-183 (receptor)
chain: not shown
notes: Secreted C-terminal deletion of the extracellular domain, expressed in HEK293 cells, used as culture medium; also called C-terminal 49 aa deleted (two N-glycosylation sites removed)
B6: mAb 1-25 (antibody, V domains shown)
VH: DVQLQESGPDLVKPSQSLSITCTVTGYSITSDYSWHWIRQFPGNKLEWMGYIHSSGITNYNPSLKSRISITRDTSKNQFFLHLSSMTNEDTATYYCTRPPVVTRYFDVWGAGTTVTVSS
VL: DIVMTQSPSSLTVTAGEKVTMSCKSSQGLLDSGNQKNYLTWYQQKPGQPPKLLIYWASTRKSGVPDRFTGSGSGTDFTLTISSVQAEDLAVYYCQNDYTYPLTFGAGTKLELK
notes: also called TCblRKB1-25
B7: TCblR 32-137, 166-233-mycHis (receptor, not shown: small tags and cut ends)
chain: EAAASPLSTPTSAQAAGPSSGSCPPTKFQCRTSGLCVPLTWRCDRDLDCSDGSDEEECRIEPCTQKGQCPPPPGLPCPCTGVSDCSGGTDKKLRNCSRLACLAGELGCGTNEILPEGDATTMGPPVTLESVTSLRNATTMGPPVTLESVPSVGNATSSSAGDQSGSPTAYGVIA
notes: Secreted, expressed in HEK293 cells, used as culture medium; also called second LDLR-A domain removed
B8: mAb 1-19 (antibody, V domains shown)
VH: DVQLQESGPGLVKPSQSLSLTCTVLGYSITSDYAWNWIRQFPGNKLEWMGYISFSGNIRYNPSLESRISITRDTSKSQFFLQLNSVTTEDRGTYYCARAGLGRVFYFDYWGQGTALTVSS
VL: DIVMSQSPSSLAVSVGEKVTMSCKSSQSLLYSSNQKNYLAWYQQKPGQSPQLLIFRASTRESGVPDRFTGSGSGTDFTLTISSVKPEDLAVYFCQQYYNYPFTFGSGTTLEIK
notes: also called TCblRKB 1-19; monoclonal antibody 1-19
B9: truncated TCblR 32-149 (receptor)
chain: not shown
notes: Secreted C-terminal deletion of the extracellular domain, expressed in HEK293 cells, used as culture medium; also called aa 150-233 deleted
B10: TCblR with the cytoplasmic tail deleted, on HEK293 cells (receptor)
chain: EAAASPLSTPTSAQAAGPSSGSCPPTKFQCRTSGLCVPLTWRCDRDLDCSDGSDEEECRIEPCTQKGQCPPPPGLPCPCTGVSDCSGGTDKKLRNCSRLACLAGELRCTLSDDCIPLTWRCDGHPDCPDSSDELGCGTNEILPEGDATTMGPPVTLESVTSLRNATTMGPPVTLESVPSVGNATSSSAGDQSGSPTAYGVIAAAAVLSASLVTATLLLL
notes: Limits derived; also called TCblR without the cytoplasmic domain; membrane-anchored receptor
B11: mAb 1-23 (antibody, V domains shown)
VH: DVQLQESGPGLVKPSQSLSLTCTVTGYSITSDYAWNWIRQFPGNKLEWMGYIAYTNRTFYTPSLESRISITRDTSKNQFFLQLNSVTTEDTGTYYCARNSGKTYGFTYWGQGTLVTVSA
VL: DIVMSQSPSSLVVSIGEKVTMSCKSSQRLLYSANQKNYLAWYQQKPGQSPKLLIYWASTRESGVPDRFTGSGSGTDFTLTISSVRAEDLALYYCQQFYNYPLTFGSGTKLEIK

Changes are numbered by the printed parent chain. Names may count otherwise. Bounds are passed on as bounds.

In test [1] the target is T1, TC-Cbl (recombinant human transcobalamin saturated with cobalamin) (human, UniProt P20062 19-427).
T1 construct: also called holo-TC; holoTc
T1 sequence (looked up): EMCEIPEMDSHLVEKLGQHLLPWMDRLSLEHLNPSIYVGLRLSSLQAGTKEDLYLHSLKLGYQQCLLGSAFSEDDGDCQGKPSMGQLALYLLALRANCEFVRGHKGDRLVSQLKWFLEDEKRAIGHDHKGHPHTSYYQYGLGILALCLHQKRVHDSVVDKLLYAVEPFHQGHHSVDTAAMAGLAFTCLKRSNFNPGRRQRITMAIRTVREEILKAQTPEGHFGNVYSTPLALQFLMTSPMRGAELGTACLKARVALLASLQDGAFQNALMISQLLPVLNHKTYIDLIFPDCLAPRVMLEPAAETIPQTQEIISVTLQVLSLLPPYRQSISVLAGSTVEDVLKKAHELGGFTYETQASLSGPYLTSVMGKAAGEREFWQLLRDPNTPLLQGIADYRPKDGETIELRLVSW
Briefly: radiolabelled TC-Cbl binding, WGA-agarose separation.

The target of test [2] is T1, TC-Cbl (recombinant human …). The test is described as follows: radiolabelled TC-Cbl binding to mutated secreted receptor.
The target is the same in test [3]. The test is described as follows: radiolabelled TC-Cbl binding, indirect competition with full-length secreted TCblR.
The target in test [4] is B2. Briefly: sandwich ELISA, mAb as capture, TCblR construct in HEK293 medium; +++ OD 2-3, ++ OD 1-2, + OD 0.5-1, - OD <0.5. On the technique in general: In an ELISA, binding on a coated surface is turned into a signal by an enzyme label.
The target in test [5] is B5. Described as above.
The target of test [6] is T2, TCblR 32-233-mycHis (human, UniProt Q9NPF0 32-233).
T2 construct: Secreted, expressed in HEK293 cells, used as culture medium; also called extracellular TCblR in pcDNA3.1 (-) mycHisA
T2 sequence: B2 chain
The test is described as above.

The target in test [7] is T3, TCblR 32-94, 142-233-mycHis (human, UniProt Q9NPF0 32-233).
T3 construct: also called TCblR without the CUB domain; region between the two LDLR-A domains deleted
The description is as above.

In test [8] the target is B1. The description is as above.
The target in test [9] is B9. Briefly: sandwich ELISA, mAb as capture.
Test [10] concerns the target B7. The test is described as follows: sandwich ELISA, mAb as capture.
The target of test [11] is T1, TC-Cbl (recombinant human …). Briefly: radiolabelled TC-Cbl binding to deletion constructs.
In test [12] the target is B7. The test is described as follows: sandwich ELISA, mAb as capture, TCblR construct in HEK293 medium; +++ OD 2-3, ++ OD 1-2, + OD 0.5-1, - OD <0.5.
For test [13], the target named is B5. The test is described as follows: sandwich ELISA, mAb as capture.
Test [14] has as its target T1, TC-Cbl (recombinant human …). The test is described as follows: binding and internalization of TC-[57Co]Cbl by transfected HEK293 cells.

For B1, the binding result in test [1] is “no binding”.
For the molecule B2, the binding result in [1] was “binds”.
Regarding B3, the binding result in test [2] is reported as “no binding”.
In the case of B4, the binding result in test [2] is on record as “no binding”.
Consider B5, for which, in test [3], the binding result is “binds”.
B6: the OD is 1 to 2 od in test [4]; 2 to 3 od in test [5]; 1 to 2 od in test [6]; 0.5 to 1 od in [7]; 2 to 3 od in [8]; below 0.5 od in test [9]. In test [10], the OD is below 0.5 od.
For the molecule B7, the binding result in test [11] was “no binding”.
For B8, the OD in [4] is 1 to 2 od; in [12], 1 to 2 od; in test [6], 2 to 3 od; in test [7], 1 to 2 od; in test [8] it was 2 to 3 od; in test [9], below 0.5 od. This molecule yielded an OD in test [13] below 0.5 od.
Take B9: the binding result in test [3] was “no binding”.
Consider B10, for which the binding result in [14] is “binds”.
Turning to B11, the OD in test [4] is 1 to 2 od; in test [12], 1 to 2 od; in [6], 1 to 2 od; in test [7], 1 to 2 od; in test [8], 1 to 2 od; in test [9], below 0.5 od. Moreover, the OD in test [13] was below 0.5 od.
